The values below come from article PMC11652679.

The test deals with Mayaro virus E1-E2 heterodimer on the VLP (Mayaro virus) (UniProt Q8QZ72). The experiment in a line: cryo-EM structure; single-particle averaging with icosahedral (I1) reconstruction of purified MAYV VLPs, ~1-2 mg/mL in STE buffer, vitrified at 4 °C; final resolution 4.5 Å.

As to “Mayaro virus E1-E2 heterodimer on the VLP (from UniProt Q8QZ72 807-1242) (complex)”, the stoichiometry N (in general, a count of units in the complex or per binding partner) is 3.
